Laboratory results published in patent US20240148884A1.

What was measured:
Assay in all cases: cell-based or functional assay
mouse GLP1R (mouse) = mouse GLP1R (mouse) (UniProt O35659)
[1] = target: cynomolgous monkey GLP1R (cynomolgous monkey)
dog GLP1R (dog) = target: dog GLP1R (dog)
dog GIPR (dog) = target: dog GIPR (dog)
human GIPR (human) = target: T1, human GIPR (human) (UniProt P48546)
T1 sequence (looked up): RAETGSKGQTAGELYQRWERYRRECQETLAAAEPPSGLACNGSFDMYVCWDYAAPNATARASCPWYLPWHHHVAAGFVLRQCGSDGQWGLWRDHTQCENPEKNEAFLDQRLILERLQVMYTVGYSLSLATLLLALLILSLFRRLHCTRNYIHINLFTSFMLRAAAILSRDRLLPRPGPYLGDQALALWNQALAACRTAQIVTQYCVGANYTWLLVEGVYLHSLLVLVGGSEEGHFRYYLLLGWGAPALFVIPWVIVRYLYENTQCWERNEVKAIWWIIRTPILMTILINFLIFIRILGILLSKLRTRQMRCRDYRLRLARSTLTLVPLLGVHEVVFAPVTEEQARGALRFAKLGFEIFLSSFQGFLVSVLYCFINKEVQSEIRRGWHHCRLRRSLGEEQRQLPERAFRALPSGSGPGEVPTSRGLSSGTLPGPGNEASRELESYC

[2] = target: cynomolgous monkey GIPR (cynomolgous monkey)
mouse GIPR (mouse) = target: T2, mouse GIPR (mouse) (UniProt Q0P543)
T2 sequence (looked up): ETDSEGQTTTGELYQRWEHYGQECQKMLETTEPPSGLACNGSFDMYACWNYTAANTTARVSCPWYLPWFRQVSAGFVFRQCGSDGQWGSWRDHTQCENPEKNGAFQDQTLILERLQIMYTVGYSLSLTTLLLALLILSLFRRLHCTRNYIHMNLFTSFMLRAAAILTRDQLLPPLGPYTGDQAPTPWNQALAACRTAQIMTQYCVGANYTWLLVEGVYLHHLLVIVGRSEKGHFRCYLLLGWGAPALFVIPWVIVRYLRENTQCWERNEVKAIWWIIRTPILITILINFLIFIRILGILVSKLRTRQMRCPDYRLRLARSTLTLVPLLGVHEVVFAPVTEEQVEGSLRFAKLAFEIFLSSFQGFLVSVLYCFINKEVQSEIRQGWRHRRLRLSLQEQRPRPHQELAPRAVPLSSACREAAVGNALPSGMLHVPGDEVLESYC

mouse GLP1R (mouse), sequence (O35659 22-463 limits assumed): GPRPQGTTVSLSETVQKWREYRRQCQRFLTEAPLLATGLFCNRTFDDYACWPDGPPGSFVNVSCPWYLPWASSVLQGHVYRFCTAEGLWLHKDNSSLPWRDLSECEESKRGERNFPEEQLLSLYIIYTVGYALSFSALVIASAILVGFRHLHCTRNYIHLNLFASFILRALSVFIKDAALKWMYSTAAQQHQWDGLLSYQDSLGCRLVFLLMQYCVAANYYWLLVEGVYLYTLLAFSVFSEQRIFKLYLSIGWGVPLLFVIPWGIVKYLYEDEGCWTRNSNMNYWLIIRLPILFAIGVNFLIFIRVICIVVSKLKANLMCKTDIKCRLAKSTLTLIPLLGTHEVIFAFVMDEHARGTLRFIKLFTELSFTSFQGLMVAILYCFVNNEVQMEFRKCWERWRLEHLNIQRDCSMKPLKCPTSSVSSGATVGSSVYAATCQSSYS
dog GLP1R (dog), sequence (chain, as listed by the source): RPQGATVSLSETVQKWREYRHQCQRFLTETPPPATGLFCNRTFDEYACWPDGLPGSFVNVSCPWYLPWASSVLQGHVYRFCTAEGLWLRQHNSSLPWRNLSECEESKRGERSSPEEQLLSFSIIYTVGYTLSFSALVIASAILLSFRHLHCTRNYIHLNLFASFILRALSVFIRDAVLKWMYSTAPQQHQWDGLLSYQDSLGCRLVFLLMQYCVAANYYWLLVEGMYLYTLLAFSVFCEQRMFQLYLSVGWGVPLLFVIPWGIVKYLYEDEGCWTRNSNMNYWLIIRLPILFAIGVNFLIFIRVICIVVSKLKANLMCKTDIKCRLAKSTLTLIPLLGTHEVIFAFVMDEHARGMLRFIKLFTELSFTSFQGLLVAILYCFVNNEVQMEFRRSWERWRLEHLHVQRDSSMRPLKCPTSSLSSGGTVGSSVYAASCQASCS

| Substance | In Vitro Potency GLP1R EC50 [nM], Mouse (mouse GLP1R (mouse)) [nM] | In Vitro Potency GLP1R EC50 [nM], Cyno [1] [nM] | In Vitro Potency GLP1R EC50 [nM], Dog (dog GLP1R (dog)) [nM] | In Vitro Potency GIPR EC50 [nM], Dog (dog GIPR (dog)) [nM] | In Vitro Potency GIPR EC50 [nM], No Serum (human GIPR (human)) [nM] | In Vitro Potency GIPR EC50 [nM], Cyno [2] [nM] | In Vitro Potency GIPR EC50 [nM], Mouse (mouse GIPR (mouse)) [nM] | In Vitro Potency GIPR EC50 [nM], 10% FBS (human GIPR (human)) [nM] |
| --- | --- | --- | --- | --- | --- | --- | --- | --- |
| Semaglutide (peptide) | 0.1 | 0.13 | 0.67 |  |  |  |  |  |
| Tirzepatide (peptide) | 0.16 |  |  | 0.1 | 0.006 | 0.08 |  |  |
| wild-type human GIP (hGIP) (from UniProt P09681 52-93) (ligand) |  |  |  | 0.7 | 0.05 | 0.69 | 0.34 | 0.01 |
